In US20240336661A1, “PEPTIDES DERIVED FROM RUMINOCOCCUS TORQUES” (University of Copenhagen, priority 2021, published 2024):

Assays:
[1] = system: MLO-Y4 (murine long bone osteocyte-Y4) cell line; test: Sclerostin mRNA expression in MLO-Y4 cells; format: cell-based, mouse; details: for sclerostin expression levels: 150 nM, 24 h
Method: FIG. 11. […] The cells were incubated with FreeStyle293 medium for 4 hr and treated for 16 hr with indicated concentrations of RUCILP2 or irisin (Upper panel), with the addition at pretreatment with vehicle (phosphate-buffered saline) or 10 μM of integrin inhibitor cRGDyK for 10 min (Lower panel). Data are represented as mean±SEM, n=3 wells/group. Significant differences between two groups were evaluated using a two-tailed, unpaired Student's t test. Upper panel, *, p<0.05, **, p<0.01, #, p<0.05, ##, p<0.01, when compared with the blank group. Lower panel, *, p<0.05, when compared with the vehicle group.
MLO-Y4 cells were donated by Prof Moustapha Kassem from the University of Southern Denmark. The cells were seeded on type I collagen-coated 6-well plates under Minimum Essential Medium (α-MEM from Fisher Scientific, #15430584), supplemented with 2.5% Fetal Bovine Serum (FBS from Fisher Scientific, #11550356), 2.5% calf serum (Hyclone, SH30072.03), and 1% Penicillin-Streptomycin (Fisher Scientific, #11548876). Cell cultures were maintained in a humidified chamber with 5% CO2 at 37° C., and culture media were changed every 2-3 days.
At 60% confluence, medium was switched to FreeStyle293 Expression medium after washing with warm PBS. After 4 hours incubation, the cells were treated with recombinant RUCILP2 or commercial recombinant irisin (Sigma, #SRP8039-10UG and Phoenix pharmaceuticals, #067-29A) or saline for 24 h. For integrin inhibitor treatment, cells were treated with 10 μM of CycloRGDyK (Selleckchem, #S7844) for 10 minutes and washed with PBS before treated with recombinant RUCILP2 or commercial recombinant irisin or saline. After treatments, MLO-Y4 cells were harvested for qRT-PCR analysis of the mRNA level of sclerostin as described in gene expression analysis. […]

[2] = system: mouse 3T3-L1 fibroblasts; test: Gene expression in 3T3-L1 fibroblasts (q-PCR); format: cell-based; details: dose-response
Method: 3T3-L1 cells (a murine fibroblast cell line) were split onto 12-well plates and grown to confluence before inducing differentiation by treatment with 86 nM insulin, 0.1 μM dexamethasone, and 250 μM methyl isobutylxanthine. Two days after induction, cells were switched to an inducing medium in the presence of recombinant RUCILPs, or commercial recombinant irisin (Sigma, #SRP8039-10UG and Phoenix pharmaceuticals, #067-29A), or phosphate buffered saline (PBS) for two days. Subsequently, cells were maintained in 86 nM insulin in the presence of indicated concentrations of recombinant RUCILPs, 21-AABP1, commercial recombinant irisin, or PBS for four days with medium change every other day for 6 days. Cells were then harvested for q-PCR analysis as described in standard protocol for gene expression analysis.
Total RNA from cells or tissues was extracted according to the instructions provided by manufacturer of RNeasy mini kit (Qiagen) using QIAzol lysis reagent (Qiagen), followed by measurements of RNA purities and concentrations by NanoDrop 2000 spectrophotometer (Thermo Scientific). A total of 1 μg of RNA was used for the reverse transcription to cDNA using the iScript™ Select cDNA Synthesis Kit (Bio-Rad Laboratories). The samples were subjected to real-time PCR using the LC480 system (Roche Diagnostics) after premixing with Precision®PLUS Master Mix (Primer Design). For each indicated gene, samples were run in duplicate in a 384-well plate and ΔΔCt method was used for quantifying the expressions after normalization to the housekeeping Rpl36 or GAPDH gene.
Firstly, we tested the dose-response effects of RUCILPs on gene expression in mouse fibroblasts (3T3-L1), mouse […] (MLO-Y4), and mouse myoblasts (C2C12). To estimate effect on adipocyte browning, we measured expression of Ucp1, Prdm16, Pgc1a, Dio2 and Cox2, and expression of AdipoQ was measured as a marker of white adipocytes. As a marker of bone formation, we measured expression of Sclerostin; and markers of myotube formation included expression of Heyl, Sox3, and Stat3.

[3] = system: fat cells; test: Cellular experiments with recombinant RUCILP2 summarised in Example 6 (fat and liver cells); format: cell-based
[4] = Insulin biosynthesis, summarised in Example 6; format: cell-based

Row | Molecule | sclerostin expression levels [1] | sclerostin expression ([1]; MLO-Y4 cells, treated 16 hr) | Adiponectin expression [2] | markers of adipocyte browning (Ucp1, Prdm16, Pgc1a, Dio2, Cox2) [2] | leptin expression in fat cells [3] | expression of genes regulating lipogenesis ([3]; adipocytes and liver cells) | insulin biosynthesis [4]
1 | RUCILP2: 87 amino acid irisin-like polypeptide cleaved from the Ruminococcus torques FNDC5-like protein RUMTOR_00181; recombinant, 6-His-tagged from E. coli (protein, 6-His tag; Ruminococcus torques, 87 amino acid irisin-like polypeptide cleaved from the Ruminococcus torques FNDC5-like protein RUMTOR_00181; recombinant, 6-His-tagged from E. coli) APVDVKVSEITETSAKASWKNAADGKEAAGYNVYVDGVKLNKELLTEASCGLTNLKAETTYFVEVTAVDAAGNESVKSEKVTFKTLK | increase | stimulates sclerostin expression | down-regulating | up-regulate | enhances | inhibits expression | stimulates
2 | RUCILP1: 88 amino acid FNIII domain polypeptide of RUMTOR_00181 from Ruminococcus torques (protein, Ruminococcus torques, 88 amino acid FNIII domain polypeptide of RUMTOR_00181 from Ruminococcus torques) APVDVKVSEVTETSAKVSWKNAADGKEAAGYNVYVDGTKVNEELIAETTYNVSSLKDGTTYSVEVTAVDAAGEESAKSEKVEFTTVKK | increase | – | down-regulating | up-regulate | – | – | –
